From the RNAGym collection of RNA variant scans (doi:10.1093/molbev/msab373)

B1: Azoarcus group I ribozyme (parent)
chain: GUGCCUUGCGCCGGGAAACCACGCAAGGGAUGGUGUCAAAUUCGGCGAAACCUAAGCGCCCGCCCGGGCGUAUGGCAACGCCGAGCCAAGCUUCGGCGCCUGCGCCGAUGAAGGUGUAGAGACUAGACGGCACCCACCUAAGGCAAACGCUAUGGUGAAGGCAUAGUCCAGGGAGUGGCGAAAGUCACACAAACCGG

Variants of: B1
Assay: reverse-splicing fitness (ratio to wild type); higher = more active; in vitro selection; Mg2+ level not given
How it was run: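 An in vitro group I ribozyme library with randomized positions was T7-transcribed and gel-purified. In triplicate, 10 pmol RNA in EPPS pH 7.5 was reacted with 50 pmoles of a 30-nt RNA substrate for 1 h at 37 °C across several added MgCl2 levels (1–48 mM), then stopped with EDTA. Products were reverse transcribed from a substrate-complementary primer, PCR-amplified and sequenced (HiSeq 4000). Fitness is a variant's read proportion after selection over that before, normalised to wild type.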

Variant	reverse-splicing fitness
C82U A111G A120C A145C C169A U176A	0.00738
C82U A111G A120C A145C C169A U176C	0.00404
C82U A111G A120C A145C C169A U176G	0.003
C82U A111G A120C A145C C150G U176A	0.00388
C82U A111G A120C A145C C150G U176G	0.00231
C82U A111G A120C A145C C150G U176C	0.00742
C82U A111G A120C A145G C150G C169A	0.00845
C82U A111G A120C A145G C150G C169G	0.00678
C82U A111G A120C A145G C150G C169U	0.00846
C82U A111G A120C A145C C150U C169G	0.0077
C82U A111G A120C A145C C150U C169U	0.00927
C82U A111G A120C A145C C150U C169A	0.00705
C82U A111G A120C A145G C150U	0.042
C82U A111G A120C A145G C150G	0.00985
C82U A111G A120C A145G C150A	0.0129
C82U A111G A120C A145C C150A C169U U176C	0.0104
C82U A111G A120C A145C C150A C169U U176G	0.00393
C82U A111G A120C A145C C150A C169U U176A	0.0146
C82U A111C C150G C169U	0.00902
C82U A111C C150G C169G	0.00661
C82U A111G A120C A145G C150U C169U	0.0127

Variant	reverse-splicing fitness
C82U A111G A120C A145G C150U C169A	0.00939
C82U A111G A120C A145G C150U C169G	0.0102
C82U A111G A120C A145C C150U C169A U176A	0.00891
C82U A111G A120C A145C C150U C169A U176G	0.00468
C82U A111G A120C A145C C150U C169A U176C	0.00487
C82U A111G	0.477
C82U A111G A120C A145C C169G U176C	0.00852
C82U A111G A120C A145C C169G U176A	0.0164
C82U A111G A120C A145C C169G U176G	0.00381
C82U A111C C150U C169A U176C	0.0134
C82U A111C C150U C169A U176A	0.0124
C82U A111C C150U C169A U176G	0.008
C82U A111C C150U U176C	0.0667
C82U A111C C150U U176A	0.0385
C82U A111C C150U U176G	0.0125
C82U A111C C150G C169G U176C	0.00488
C82U A111C C150G C169G U176G	0.00523
C82U A111C C150G C169G U176A	0.00576
C82U A111G A120C A145G C150U C169A U176C	0.0152
C82U A111G A120C A145G C150U C169A U176A	0.0135
C82U A111G A120C A145G C150U C169A U176G	0.00429

Variant	reverse-splicing fitness
C82U A111G A120C A145C C150A C169G U176C	0.00993
C82U A111G A120C A145C C150A C169G U176A	0.0198
C82U A111G A120C A145C C150A C169G U176G	0.00451
C82U A111C C169A U176G	0.00617
C82U A111C C169A U176C	0.0243
C82U A111C C169A U176A	0.016
C82U A111G A120C A145C U176G	0.00487
C82U A111G A120C A145C U176C	0.0213
C82U A111G A120C A145C U176A	0.0156
C82U A111G A120C A145G C150G C169A U176C	0.0107
C82U A111G A120C A145G C150G C169A U176A	0.0113
C82U A111G A120C A145G C150G C169A U176G	0.00661
C82U A111G A120C A145G C150U U176A	0.0138
C82U A111G A120C A145G C150U U176G	0.00625
C82U A111G A120C A145G C150U U176C	0.0274
C82U A111G A120C	0.0555
C82U A111C C169G U176G	0.007
C82U A111C C169G U176A	0.0181
C82U A111C C169G U176C	0.024
C82U A111C U176A	0.0847
C82U A111C U176C	0.104

Variant	reverse-splicing fitness
C82U A111C U176G	0.02
C82U A111G A120C A145G C150U C169G U176G	0.00507
C82U A111G A120C A145G C150U C169G U176A	0.0191
C82U A111G A120C A145G C150U C169G U176C	0.0188
C82U A111G A120C A145C C150A C169A	0.00689
C82U A111G A120C A145C C150A C169U	0.00924
C82U A111G A120C A145C C150A C169G	0.00759
C82U A111G A120C A145G C150G U176C	0.00793
C82U A111G A120C A145G C150G U176A	0.00545
C82U A111G A120C A145G C150G U176G	0.0033
C82U A111G A120C A145G C150G C169U U176C	0.0109
C82U A111G A120C A145G C150G C169U U176A	0.00704
C82U A111G A120C A145G C150G C169U U176G	0.0053
C82U A111G A120C A145G C150A C169A U176C	0.018
C82U A111G A120C A145G C150A C169A U176G	0.00589
C82U A111G A120C A145G C150A C169A U176A	0.0157
C82U A111G A120C A145C C150A	0.00803
C82U A111G A120C A145C C150U	0.0145
C82U A111G A120C A145C C150G	0.00936
C82U A111G A120C A145C C150A U176G	0.0038
